Measurements published in the supplement of paper PMC9942255.
Values joined by “and” are separate entries in the source; they are usually repeats but may differ in a detail not shown here. Equal entries are not always repeated.

Test system: Bacillus subtilis DB104 (SP-AmyQ fusion secretion)
Experiment: AmyQ secretion efficiency, weighted average sort bin (1 = best secretion, 10 = worst) (bin number (weighted average, 1-10)); higher = lower secretion efficiency
Summary of the method: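 The secretion score was taken as the read-frequency-weighted mean bin number, normalised to beads per bin, with low-abundance sequences excluded. Bins came from large-particle flow cytometry sorting of occupied alginate beads (~65 nL, about 0.3 cells each, with fluorescein-starch) into 10 equally populated groups by green/red fluorescence ratio after about 13 h at room temperature and nile red staining. The cells were a B. subtilis DB104 library with mature AmyQ fused to designed signal peptides, integrated at amyE, and each bin's amplicons were Illumina-sequenced.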

| Sequence | AmyQ secretion efficiency |
| --- | --- |
| MFGKLLLATSALTFSLSLVLPLDGHAKAQEV | 3.02 |
| MKLKKRVSYFLVALTMCGGLFVTPAKAVKT | 6.42 |
| MKKKLAAGLTASAIVGTTLVVTPCEAATI | 1.75 |
| MLKKKWMVGLLAGCLAAGGFSYNAFWTEN | 6.56 |
| MNKKYFVLIVCIIFTSALFPTFSSVTAAQR | 1.45 |
| MKVCQKSIRFLVSLIIGTFVISVPFMANAQSD | 1.22 |
| MGMTSNLSLGVASAALGLALVGGGTWAAFN | 8.22 |
| MMIKQCVICLSLLVFGTTAVHAEET | 1.9 |
| MKKRRLLAAGIIGLLTVSIASPSFAAEK | 2.29 and 2.73 |
| MNKPTKLFSTLALAAGMTKDKTTSAGTIHAQQP | 7.85 |
| MNRLFMKASLVLFAVVFVFAVKGAPAKAETH | 1.75 |
| MKLSVKIAGVLTVAAAAMEDDMYATAKGN | 6.49 |
| MRMLWRMLALCLLALLLAPCAQAAEP | 1.73 |
| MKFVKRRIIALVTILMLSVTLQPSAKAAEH | 3.15 |
| MKLKKRVSMFLVALTMCGGLFVTAAKAVKT | 4.92 |
| MRKTIFAFLTGLMMFGTITAQSASPD | 5.11 |
| MRPVFPLILSAVLFLSCFFGARQTESSASKR | 3.91 |
| MSPVFPLILSAVLFLSCFFGARQTEASASKR | 2.21 |
| MKKRITYSLLALLAVVAFAFTRSSKAKAAEA | 3.67 |
| MKWMCSICCAAVLLAGGAFQAEAV | 4.41 |
| MKNMSCKLVVSVTLFFSFLTIGPLAHAQKR | 1.94 |
| MKSKGSIMKCQILFSFTITTFINTETISAFSN | 6.89 |

| Sequence | AmyQ secretion efficiency |
| --- | --- |
| MKMKSGMEQAVSVLLLLSRLPVQASLTSH | 7.82 |
| MKLRKVLTGSVLSLGLLIVSASPAFATSP | 2.48 |
| MGGLGTLVLLLLVTGLFMSLFAVTATASAQTG | 3.36 |
| MRPVFPLILSAVLFLSCFFGARQTENSASKR | 6.14 |
| MPYLKRVLLLLVTGLFMSLFAVTATCSAQTG | 1.27 |
| MKKKIRRRKAVSAVVGSSMAAAPAEAKTI | 5.54 |
| MNLRKILLSSALSLGMLVSAAPVLHTSS | 6.17 |
| MKKARRRKAAAAVGLFTFGGVQQASAKEL | 6.73 |
| MKKGQYRRGSLGLVFGFSYGAGHVAEAKTK | 7.9 |
| MKRIRIPMTLALGAALTIAPLSFASSEEN | 4.71 |
| MKRTWNVCKRALLSVLLVAGSVPFHAEAKKP | 3.1 |
| MLCVMMLLFSAIASFPVSTQAKDQ | 5.3 |
| MKKQIITATTAVVLGSTLFAGAMSAQSI | 1.54 |
| MRNLTKTSLLLAGLCTAAQMVFVTHASAAKR | 2.59 |
| MKKKQVMLALTAAAGLGLTALAIVSSFVHSAPAAKAAPL | 5.73 |
| MRGKSAKRLSLIMLIAGFLISFSFQM | 7.38 |
| MRKYTVIASILLSFLSVLFIVVVTSKAFPV | 5.84 |
| MKMKSGMEQAVSVLLLLSRLPVQASITSE | 7.01 |
| MKTKTLFIFSAILTLSIFAPNEMFAQTA | 1.9 |
| MAIIIAIIAAVIVIAALITFNVRNSSPG | 8.62 |
| MKKRLIAPMLLSAASLAFFAMSGSAQTAAY | 7.42 |
| MKKWIYVVLVLSIAGIGGFSYHAASS | 7.41 |

| Sequence | AmyQ secretion efficiency |
| --- | --- |
| MRKKTKNRLISSQKSTVVISSLLFPGAAGASSK | 8.12 |
| MLKRTSFVSSLFISSAVLLSILLPSGQIHAQSA | 2.68 |
| MRPVFPLILSAVLFLSCFSVSTFFGARQTEASASKR | 2.65 |
| MKLWMRKTLVVLFTIVTFGLVSPPAALMSDKP | 3.94 |
| MLKKIARRKCKKRVGSLLFFTAPASAHVS | 7.33 |
| MNLRKILLSSALSLGMLTLFFLSAVTVSAAPVLATSS | 1.71 |
| MKRLLSTLLIGIMLLITTILVSTLTFAPSAFAKQD | 1.3 |
| MKLAKRVSALTPSTTLAITDKAKEL | 7.38 |
| MKIRKILLSSALSFGMLISAVPGLAAGT | 3.97 |
| MKLWMRKTLVVLFLIVFFFLGTVSPPAALMADKP | 3.95 |
| MAIIIAIIAAVIVIAALITFEVRNASPG | 5.68 |
| MKKKKRKFVLIVCIIFTSALFPTFSSVTAAQG | 1.03 |
| MKLAKRVKRRKRKTTLAITAKAKEL | 7.36 |
| MKSKWMSGLLLVAVGFSFTQVMVHLGET | 7.17 |
| MKRSINSIFITCLLITLLTMGGMIASPASAAGT | 1.88 |
| MRSYIKVLTMCFLGLILFVPTALGDNS | 2.8 |
| MKKCLLFLTTIALILKRRTNAFAKNT | 7.37 |
| MLKKIALTLCPAIVGSLLFFTAPASKHVS | 5.12 |
| MRFTKVVGFLSVLGLAASSILLLFSIVFPLTAQAEKA | 2.15 |
| MAAQTDYKKQVVGILLSLAFVLRRRKFSERHE | 7.65 |
